Reference: US20230080842A1 (WUHAN YZY BIOPHARMA, published 2023)

B1: Y116-B1 (bispecific antibody)
light: DIQMTQSPSSLSASVGDRVTITCKASQDVGIAVAWYQQKPGKVPKLLIYWASTRHTGVPDRFSGSGSGTDFTLTISSLQPEDVATYYCQQYSSYPYTFGQGTKVEIKRTVAAPSVFIFPPSDEQLKSGTASVVCLLNNFYPREAKVQWKVDNALQSGNSQESVTEQDSKDSTYSLSSTLTLSKADYEKHKVYACEVTHQGLSSPVTKSFNRGECGAAAGGGGSGGGGSGGGGSEVQLVESGGGVVRPGGSLRLSCAASGFTFDDYGMSWVRQAPGKGLEWVSGINWNGGSTGYADSVKGRFTISRDNAKNSLYLQMNSLRAEDTAVYYCARGRSLLFDYWGQGTLVTVSR
heavy: EVQLVESGGGLVQPGGSLRLSCAASGFDFSRYWMSWVRQAPGKGLEWIGEINPDSSTINYAPSLKDKFIISRDNAKNSLYLQMNSLRAEDTAVYYCARPDGNYWYFDVWGQGTLVTVSSASTKGPSVFPLAPSSKSTSGGTAALGCLVKDYFPEPVTVSWNSGALTSGVHTFPAVLQSSGLYSLSSVVTVPSSSLGTQTYICNVNHKPSNTKVDKKVEPKSCGAAAGGGGSGGGGSSELTQDPAVSVALGQTVRITCQGDSLRSYYASWYQQKPGQAPVLVIYGKNNRPSGIPDRFSGSSSGNTASLTITGAQAEDEADYYCNSRDSSGNHVVFGGGTKLTVLGYPGGGGSDKTHTCPPCPAPPVAGPSVFLFPPKPKDTLMISRTPEVTCVVVDVSHEAPEVQFNWYVDGVEVHNAKTKPREEQFNSTFRVVSVLTVVHQDWLNGKEYKCKVSNKGLPAPIEKTISKTKGQPREPQVYTLPPSRDELTKNQVSLTCLVKGFYPSDIAVEWESNGQPENNYKTTPPVLDSDGSFFLYSKLTVDKSRWQQGNVFSCSVMHEALHNHYTQKSLSLSPGK
B2: Y116-B2 (bispecific antibody)
light: DIQMTQSPSSLSASVGDRVTITCKASQDVGIAVAWYQQKPGKVPKLLIYWASTRHTGVPDRFSGSGSGTDFTLTISSLQPEDVATYYCQQYSSYPYTFGQGTKVEIKRTVAAPSVFIFPPSDEQLKSGTASVVCLLNNFYPREAKVQWKVDNALQSGNSQESVTEQDSKDSTYSLSSTLTLSKADYEKHKVYACEVTHQGLSSPVTKSFNRGECGGGGSEAAAKGGGGSEVQLVESGGGVVRPGGSLRLSCAASGFTFDDYGMSWVRQAPGKGLEWVSGINWNGGSTGYADSVKGRFTISRDNAKNSLYLQMNSLRAEDTAVYYCARGRSLLFDYWGQGTLVTVSR
heavy: EVQLVESGGGLVQPGGSLRLSCAASGFDFSRYWMSWVRQAPGKGLEWIGEINPDSSTINYAPSLKDKFIISRDNAKNSLYLQMNSLRAEDTAVYYCARPDGNYWYFDVWGQGTLVTVSSASTKGPSVFPLAPSSKSTSGGTAALGCLVKDYFPEPVTVSWNSGALTSGVHTFPAVLQSSGLYSLSSVVTVPSSSLGTQTYICNVNHKPSNTKVDKKVEPKSCGGGGSEAAAKGGGGSSELTQDPAVSVALGQTVRITCQGDSLRSYYASWYQQKPGQAPVLVIYGKNNRPSGIPDRFSGSSSGNTASLTITGAQAEDEADYYCNSRDSSGNHVVFGGGTKLTVLGYPGGGGSDKTHTCPPCPAPPVAGPSVFLFPPKPKDTLMISRTPEVTCVVVDVSHEAPEVQFNWYVDGVEVHNAKTKPREEQFNSTFRVVSVLTVVHQDWLNGKEYKCKVSNKGLPAPIEKTISKTKGQPREPQVYTLPPSRDELTKNQVSLTCLVKGFYPSDIAVEWESNGQPENNYKTTPPVLDSDGSFFLYSKLTVDKSRWQQGNVFSCSVMHEALHNHYTQKSLSLSPGK
B3: Y216-A1 (bispecific antibody, human IgG1, kappa)
light: DIQMTQSPSSLSASVGDRVTITCKASQDVGIAVAWYQQKPGKVPKLLIYWASTRHTGVPDRFSGSGSGTDFTLTISSLQPEDVATYYCQQYSSYPYTFGQGTKVEIKRTVAAPSVFIFPPSDEQLKSGTASVVCLLNNFYPREAKVQWKVDNALQSGNSQESVTEQDSKDSTYSLSSTLTLSKADYEKHKVYACEVTHQGLSSPVTKSFNRGEC
heavy: EVQLVESGGGLVQPGGSLRLSCAASGFDFSRYWMSWVRQAPGKGLEWIGEINPDSSTINYAPSLKDKFIISRDNAKNSLYLQMNSLRAEDTAVYYCARPDGNYWYFDVWGQGTLVTVSSASTKGPSVFPLAPSSKSTSGGTAALGCLVKDYFPEPVTVSWNSGALTSGVHTFPAVLQSSGLYSLSSVVTVPSSSLGTQTYICNVNHKPSNTKVDKKVEPKSCDKTHTCPPCPAPPVAGPSVFLFPPKPKDTLMISRTPEVTCVVVDVSHEAPEVQFNWYVDGVEVHNAKTKPREEQFNSTFRVVSVLTVVHQDWLNGKEYKCKVSNKGLPAPIEKTISKTKGQPREPQVYTLPPSRDELTKNQVSLTCLVKGFYPSDIAVEWESNGQPENNYKTTPPVLDSDGSFFLYSKLTVDKSRWQQGNVFSCSVMHEALHNHYTQKSLSLSPGAGGGGSGGGGSGGGGSGEVQLVESGGGVVRPGGSLRLSCAASGFTFDDYGMSWVRQAPGKGLEWVSGINWNGGSTGYADSVKGRFTISRDNAKNSLYLQMNSLRAEDTAVYYCARGRSLLFDYWGQGTLVTVSRGGGGSGGGGSGGGGSSELTQDPAVSVALGQTVRITCQGDSLRSYYASWYQQKPGQAPVLVIYGKNNRPSGIPDRFSGSSSGNTASLTITGAQAEDEADYYCNSRDSSGNHVVFGGGTKLTVL
notes: structure 2 IgG(H)-ScFv, A series; IgG Elotuzumab (anti-SLAMF7), scFv NM3E2 (anti-CD16)
B4: Y216-B1 (bispecific antibody, human IgG1, kappa)
light: B3 light
heavy: EVQLVESGGGLVQPGGSLRLSCAASGFDFSRYWMSWVRQAPGKGLEWIGEINPDSSTINYAPSLKDKFIISRDNAKNSLYLQMNSLRAEDTAVYYCARPDGNYWYFDVWGQGTLVTVSSASTKGPSVFPLAPSSKSTSGGTAALGCLVKDYFPEPVTVSWNSGALTSGVHTFPAVLQSSGLYSLSSVVTVPSSSLGTQTYICNVNHKPSNTKVDKKVEPKSCDKTHTCPPCPAPPVAGPSVFLFPPKPKDTLMISRTPEVTCVVVDVSHEAPEVQFNWYVDGVEVHNAKTKPREEQFNSTFRVVSVLTVVHQDWLNGKEYKCKVSNKGLPAPIEKTISKTKGQPREPQVYTLPPSRDELTKNQVSLTCLVKGFYPSDIAVEWESNGQPENNYKTTPPVLDSDGSFFLYSKLTVDKSRWQQGNVFSCSVMHEALHNHYTQKSLSLSPGAGGGGSGGGGSGGGGSGSELTQDPAVSVALGQTVRITCQGDSLRSYYASWYQQKPGQAPVLVIYGKNNRPSGIPDRFSGSSSGNTASLTITGAQAEDEADYYCNSRDSSGNHVVFGGGTKLTVLGGGGSGGGGSGGGGSEVQLVESGGGVVRPGGSLRLSCAASGFTFDDYGMSWVRQAPGKGLEWVSGINWNGGSTGYADSVKGRFTISRDNAKNSLYLQMNSLRAEDTAVYYCARGRSLLFDYWGQGTLVTVSR
notes: structure 2 IgG(H)-ScFv, B series; IgG Elotuzumab (anti-SLAMF7), scFv NM3E2 (anti-CD16)
B5: Y316-A1 (bispecific antibody)
chain: EVQLVESGGGLVQPGGSLRLSCAASGFDFSRYWMSWVRQAPGKGLEWIGEINPDSSTINYAPSLKDKFIISRDNAKNSLYLQMNSLRAEDTAVYYCARPDGNYWYFDVWGQGTLVTVSSGGGGSGGGGSGGGGSDIQMTQSPSSLSASVGDRVTITCKASQDVGIAVAWYQQKPGKVPKLLIYWASTRHTGVPDRFSGSGSGTDFTLTISSLQPEDVATYYCQQYSSYPYTFGQGTKVEIKGGGGSASEVQLVESGGGVVRPGGSLRLSCAASGFTFDDYGMSWVRQAPGKGLEWVSGINWNGGSTGYADSVKGRFTISRDNAKNSLYLQMNSLRAEDTAVYYCARGRSLLFDYWGQGTLVTVSRGGGGSGGGGSGGGGSSELTQDPAVSVALGQTVRITCQGDSLRSYYASWYQQKPGQAPVLVIYGKNNRPSGIPDRFSGSSSGNTASLTITGAQAEDEADYYCNSRDSSGNHVVFGGGTKLTVLDKTHTCPPCPAPPVAGPSVFLFPPKPKDTLMISRTPEVTCVVVDVSHEAPEVQFNWYVDGVEVHNAKTKPREEQFNSTFRVVSVLTVVHQDWLNGKEYKCKVSNKGLPAPIEKTISKTKGQPREPQVYTLPPSRDELTKNQVSLTCLVKGFYPSDIAVEWESNGQPENNYKTTPPVLDSDGSFFLYSKLTVDKSRWQQGNVFSCSVMHEALHNHYTQKSLSLSPGK
notes: structure 3 Tandem-ScFv-Fc, A series, two identical fusion peptides; scFv Elotuzumab (anti-SLAMF7), scFv NM3E2 (anti-CD16)
B6: Y416-B1 (bispecific antibody, human IgG1, kappa)
light: EVQLVESGGGLVQPGGSLRLSCAASGFDFSRYWMSWVRQAPGKGLEWIGEINPDSSTINYAPSLKDKFIISRDNAKNSLYLQMNSLRAEDTAVYYCARPDGNYWYFDVWGQGTLVTVSSGGGGSGGGGSGGGGSSELTQDPAVSVALGQTVRITCQGDSLRSYYASWYQQKPGQAPVLVIYGKNNRPSGIPDRFSGSSSGNTASLTITGAQAEDEADYYCNSRDSSGNHVVFGGGTKLTVLRTVAAPSVFIFPPSDEQLKSGTASVVCLLNNFYPREAKVQWKVDNALQSGNSQESVTEQDSKDSTYSLSSTLTLSKADYEKHKVYACEVTHQGLSSPVTKSFNRGEC
heavy: DIQMTQSPSSLSASVGDRVTITCKASQDVGIAVAWYQQKPGKVPKLLIYWASTRHTGVPDRFSGSGSGTDFTLTISSLQPEDVATYYCQQYSSYPYTFGQGTKVEIKGGGGSGGGGSGGGGSEVQLVESGGGVVRPGGSLRLSCAASGFTFDDYGMSWVRQAPGKGLEWVSGINWNGGSTGYADSVKGRFTISRDNAKNSLYLQMNSLRAEDTAVYYCARGRSLLFDYWGQGTLVTVSRASTKGPSVFPLAPSSKSTSGGTAALGCLVKDYFPEPVTVSWNSGALTSGVHTFPAVLQSSGLYSLSSVVTVPSSSLGTQTYICNVNHKPSNTKVDKKVEPKSCDKTHTCPPCPAPPVAGPSVFLFPPKPKDTLMISRTPEVTCVVVDVSHEAPEVQFNWYVDGVEVHNAKTKPREEQFNSTFRVVSVLTVVHQDWLNGKEYKCKVSNKGLPAPIEKTISKTKGQPREPQVYTLPPSRDELTKNQVSLTCLVKGFYPSDIAVEWESNGQPENNYKTTPPVLDSDGSFFLYSKLTVDKSRWQQGNVFSCSVMHEALHNHYTQKSLSLSPGK
B7: ElotuzumAb (antibody, human IgG1, kappa, V domains shown)
VH: EVQLVESGGGLVQPGGSLRLSCAASGFDFSRYWMSWVRQAPGKGLEWIGEINPDSSTINYAPSLKDKFIISRDNAKNSLYLQMNSLRAEDTAVYYCARPDGNYWYFDVWGQGTLVTVSS
VL: DIQMTQSPSSLSASVGDRVTITCKASQDVGIAVAWYQQKPGKVPKLLIYWASTRHTGVPDRFSGSGSGTDFTLTISSLQPEDVATYYCQQYSSYPYTFGQGTKVEIKR
notes: anti-SLAMF7 monoclonal antibody, human IgG1 constant domains, kappa

Biological target: T1, Human SLAMF7 (human, UniProt Q9NQ25 23-226)
T1 construct: also called SLAMF7 antigen; not shown: His tag
Assay: ELISA, plate coated with His-tagged antigen
Procedure: 2) addition of antibody: according to the experimental design, operation was performed at room temperature, and the antibody was diluted in gradient with 1% BSA in PBS. […] The diluted antibody was added into wells of microtiter plate at 200 μl/well, incubated at room temperature for 2h, and then the supernatant was discarded;

Binder | EC50 [pM]
B1 | 636
B2 | 648
B3 | 715
B4 | 499
B5 | 9180
B6 | 5590
B7 | 628
